This series can be described thus: label from the status in PepcDB records.
On to “MGNILKDKSMAFAIQIVNLHKYPNKRKAYSLSDQILISGTAIGVLQKETECAESNADFIHNIASPQKNVTKPFSGLNCYLKQNIYPKQNIQACLQTQMNLEHHHHHH”, for which the protein production result was “failed”.

Take “MSTKKPAAAYSEASIKVLKGLEPVKQRPGMYTRTENPLHIIQEVIDNASDEALGGFGKQITVTLHPDQSVSVEDDGRGIPFGLHPEEKVPVVEIVFTRLHAGGKFDKAKGGAYTFSGGLHGVGVSVTNALATRLDVTVWRDGKIAQLGFADGDVVKPLATQGAGRGEKKSGTRVTVWPNPKYFDSPNLPLGELQRLLRSKAVLLPGVEVVLVNEKTGERQSWKYEDGLRGYLLDEMNGSELLIPLFEGERFADSRSGDDTFAEGEGASWVVAWSEEGSLVRESYVNLIPTPAGGTHESGLRDGLYQAVKSFVELHNLQPKGVKLLAEDVFARVSFVLSAKVLDPQFQGQIKERLNSRDAVKLVSSFTRPALELWLNQHVEHGKKLAELVIKQAQARTRAGQKIEKKKSSGVAVLPGKLTDCETEDIARNELFLVEGDSAGGSAKMGRDKEYQAILPLRGKVLNTWETERDRLFANNEVHDISVAIGVDPHGPDDSVDVSNLRYGKICILSDADVDGAHIQVLLLTLFFKHFPQLIERGHVFVARPPLFRVDAPARGKKPAQKLYALDEGELEAILDKLRKDGVRESQWTISRFKGLGEMSAEQLWDTTMNPDTRRLMPVALGELDFEATVARMTMLMGKGEAAARRNWLEEKGNEVEADI”: the protein production result was “failed”.

For the sequence “MEALGPGGDRASPASSTSSLDLWHLSMRADSAYSSFSAASGGPEPRTQSPGTDLLPYLDWDYVRVVWGGPGPAPPDAALCTSPRPRPAVAARSGPQPTEVPGTPGPLNRQATPLLYALAAEAEAAAQAAEPPSPPASRAAYRQRLQGAQRRVLRETSFQRKELRMSLPARLRPTVPARPPATHPRSASLSHPGGEGEPARSRAPAPGTAGRGPLANQQRKWCFSEPGKLDRVGRGGGPARECLGEACSSSGLPGPEPLEFQHPALAKFEDHEVGWLPETQPQGSMNLDSGSLKLGDAFRPASRSRSASGEVLGSWGGSGGTIPIVQAVPQGAETPRPLFQTKLSRFLPQKEAAVMYPAELPQSSPADSEQRVSETCIVPAWLPSLPDEVFLEEAPLVRMRSPPDPHASQGPPASVHASDQPYGTGLGQRTGQVTVPTEYPLHECPGTAGADDCWQGVNGSVGISRPTSHTPTGTANDNIPTIDPTGLTTNPPTAAESDLLKPVPADALGLSGNDTPGPSHNTALARGTGQPGSRPTWPSQCLEELVQELARLDPSLCDPLASQPSPEPPLGLLDGLIPLAEVRAAMRPACGEAGEEAASTFEPGSYQFSFTQLLPAPREETRLENPATHPVLDQPCGQGLPAPNNSIQGKKVELAARLQKMLQDLHTEQERLQGEAQAWARRQAALEAAVRQACAPQELERFSRFMADLERVLGLLLLLGSRLARVRRALARAASDSDPDEQASLLQRLRLLQRQEEDAKELKEHVARRERAVREVLVRALPVEELRVYCALLAGKAAVLAQQRNLDERIRLLQDQLDAIRDDLGHHAPSPSPARPPGTCPPVQPPFPLLLT”, the protein production result was “failed”.

Turning to “EEHPRAWIISVGNELLIGRTINTNAAWLGSRLTLLGFEVERVVTVPDRVEDIAEEVGRALGRARVVITTGGLGPTYDDVTLQGVAMALGRGLKLHPGALEMVRRFYSKRGLGLTEDRVKMAMLPDGAEPLENPVGAAPGAVVEARGSLVASLPGVPSEMEAMFEKALRPLLEEIAPPGAVVECGIAVVGVPESSLAPYIKEASRVSPRVYVKSHPQGSEIGKPLVR”, the protein production result is on record as “failed”.

Turning to “MPVTDVKHDLDTLTLTITAEFAAPVTRIWQIYADPRQLEKVWGPPSHPATVVDHDLRPGGRVTYFMTGPDGEKYAGYWEITAVDEPHSFSFLDGFADEDFNPNTDLPVSTNVYTFTEHDGGTRATYVGTYASAEALQQVLDMGVIEGASSAINQIDALLTA”, the protein production entry is “failed”.

Take “MPLAVLERDGSFLGVLTPHSIVEVLLERERRLLEDARKINAEIRREADKAIEQLDIKAHYDTVTGLPNRQLFCDRLLQALAAHERDGNPVVLLFLDVDNFKSINDSLGHLVGDRLLRATAERIRTAVRDGDTVARIGGDEFTILLNGAKDTLNGALVAQKILDGLAQPFVFGAQQIVISVSIGIAVSPADGETMEQLLRNADTAMYHAKSRGKNNYQFFSPELNVQAYRRQEIERNLRCALLQGELGLRYAPRVDLRSGRIVALEVCPFWLSSELGDVPPDDFIPVAEETGLIVQIGIWAFRTACAHAAVWRTQGLADRCLSFRLSQRELDDPQFGDRIMSLLDGCGLEPENLQFELSERMLMTHAAHTLAVLQELSNRGIRFSVGDFGTGNASLRRLRRFPIDELKIDLSSVRDIEPDSDDAAVITAMIAMAKSLRMDVVAVGVETPEHVAFLLERGCRHGQGRLIGARLPPERIAALLAGDAVDLFVALEHHHHHH”: the protein production entry is “failed”.

In the case of “MFGTPSSSPSFGTPSSTPAFGTSSPAFGTPSATPAFGTPSNPSFSSGGFGSSLFSSPFSSQQPQQQQQQQQQQQPSSLFQQQPSSNFGFQSPFNNTAQQQQQTPFPNAQLTTQMAPVAPIPYSLADRDVQAIIEAYKEDPTNPKYAFQHLLFSVTEPQYRVKPAAVSDIMWAEAMSKLEGMDSTERERLWPQLVQGFKDLSQRLKLQDEVLVSDRDRIKTTQSNVKMLQRHLQASTFPSIERLRQKEQSLQRRMLRVMRIIEGLEGKGFRLPLTKGEAELSEKLTAITRQVKGPGAELSRRVQSLQTISRAQANSIAAGSSLYLPGSTKIDEQSLIDMQEVLQQETEAIGRLGNVLKRDMRDMEIMVAEDTEMALDS”, the protein production entry is “failed”.

For the sequence “MPLTIRPARFEELPAVQAIERLSARRFVGWIDALADDDPSPLERLAERSASGGLLVADVETGEGPKAAGFVMFRPMEDSLYIEQIDVAPAFERRRIGATLINAVADRAVALGLSRLTLSTFREIPWNAPYYRRLGFVDLDDEA”, the protein production result was “failed”.

On to “CASRQEHSLRIIHTTDLHGNVFPTDFKALRPTSGGMSRLASFLKAARSDRSELLLFDGGDVLQGDPTAYYYNYMDTTGTHLFSRAMNYLRYDAAIPGNHDIETGHAVYDKWVAGCDFPFLAANAIDTETGKPYWAPYKVFDRNGLRVALLGFITPAIPEWLPQSLWTGMRFDDIIESAKYWVPFVIQKEKPDFVVCVLHSGRENDNSNYLEDAGMTLAREVAGIDVLLLGHDHQEYSRRVKGAEADSVLVLNPANHLDKVSDVRLSLARKGDKVLHKRVEGGLTDISRLTPDSAFMAHFSSDEAAVRRFVNE”, for which the protein production entry is listed as “failed”.

Regarding “MGWHFQQSVTMPSEWRTLALESDDSYNDFTVIMRRKLQENQVNVVNLEQNIPILRINKQITSDQVASIFKHGREAEKLLMLEVEATFRLANGESYPINAKVNRTFFDNARAALAKSEEREVIWNDMREQVARQLIVKIIALQNQIKRKLEHHHHHH”, the protein production entry is “not failed”.

“MIRLGKMSDLDQILNLVEEAKELMKEHDNEQWDDQYPLLEHFEEDIAKDYLYVLEENDKIYGFIVVDQDQAEWYDDIDWPVNREGAFVIHRLTGSKEYKGAATELFNYVIDVVKARGAEVILTDTFALNKPAQGLFAKFGFHKVGEQLMEYPPYDKGEPFYAYYKNLKE”: the protein production entry is “failed”.

As to “MELENIVANTVLLKAREGGGGNRKGKSKKWRQMLQFPHISQCEELRLSLERDYHSLCERQPIGRLLFREFCATRPELSRCVAFLDGVAEYEVTPDDKRKACGRQLTQNFLSHTGPDLIPEVPRQLVTNCTQRLEQGPCKDLFQELTRLTHEYLSVAPFADYLDSIYFNRFLQWKWLERQPVTKNTFRQYRVLGKGGFGEVCACQVRATGKMYACKKLEKKRIKKRKGEAMALNEKQILEKVNSRFVVSLAYAYETKDALCLVLTLMNGGDLKFHIYHMGQAGFPEARAVFYAAEICCGLEDLHRERIVYRDLKPENILLDDHGHIRISDLGLAVHVPEGQTIKGRVGTVGYMAPEVVKNERYTFSPDWWALGCLLYEMIAGQSPFQQRKKKIKREEVERLVKEVPEEYSERFSPQARSLCSQLLCKDPAERLGCRGGSAREVKEHPLFKKLNFKRLGAGMLEPPFKPDPQAIYCKDVLDIEQFSTVKGVELEPTDQDFYQKFATGSVPIPWQNEMVETECFQELNVFGLDGSVPPDLDWKGQPPAPPKKGLLQRLFSRQDCCGNCSDSEEELPTRL”, the protein production entry is “failed”.

Turning to “MNEEKQQELLISVIITNYNYDQFIDQAIESVLSQTYYNFELIIVDDGSTDNSRDVISSYTDSRIKALVKNNGGQASAFNAGFEQANGEIICFLDSDDWWKPEKLETIIRWHYFINKDYAIFQHVLDVWYEGKTRPYKHILPSGDCFAEMKKVKKLDFFVPTSGLSFPKKILDRIFPIPIKFIIAADSYIMRTACVFNMVYSIPKSLGFYRQHDNTVFLNPDFDLQPFLKEILIPELNQFYQKYRINYQIEISDYNFNERKKNKKQKIFEYLKKVFFLEHHHHHH”, the protein production result is given as “failed”.

On to “ASNTNLIVNYLPQDMTDRELYALFRAIGPINTCRIMRDYKTGYSYGYAFVDFTSEMDSQRAIKVLNGITVRNKRLKVSYARPGGESIKDTNLYVTNLPRTITDDQLDTIFGKYGSIVQKNILRDKLTGRPRGVAFVRYNKREEAQEAISALNNVIPEGGSQPLSVRLA”, for which the protein production result is given as “not failed”.

Consider “MISSMNFWRCRCSKDDAEQSMLYSYNNGFLGFSAKLNSTQAASLAKLNQVITVFKSKSLKLHTTRSWDFLGLAVDNARRTPPPQLAYGSDIVVGIFDTGLFISLKLLLLSILGIWPESESFRETPEAKPIPSSWNGKCVGGEDFDPSVHCNRKLIGARFYLRGFEETYGTIDFTRDPEYRSPRDYLGHGTHTASTAVGSVVRNVSGFFGLGRGTARGGAPLARLAVFKTCWGKDLEGVCTEADILAAFDDAIHDGVHVISASFGYSPPLSPFFESSADIGAFHAAERGISVVFSTGNDGPDPGVVQNVAPWAVSVAASTVDRSFPTRIVIDGSFTLTGQSLISQEITGTLALATTYFNGGVCKWENWMKKLANETIILCFSTLGPVQFIEEAQAAAIRANALALIFAASPTRQLAEEVDMIPTVRVDILHGTRIRNYLARSPTVPMVKIGPSKTVIGETTAPSVAYFSSRGPSSLSPDILKPDITAPGIGILAAWPPRTPPTLLPGDHRSIEWNFQSGTSMSCPHVAGVMALLQSAHPDWSPSAIRSAIMTTAYTRDTSYDLILSGGSMKSTDPFDIGAGHINPLKAMDPGLVYNTRTDDYVLFMCNIGYTDQEIKSMVLHPEPSTTCLPSHSYRTNADFNYPSITIPSLRLTRTIKRTVSNVGPNKNTVYFVDIIRPVGVEVLIWPRILVFSKCQQEHSYYVTFKPTEIFSGRYVFGEIMWTNGLHRVRSPVVVFLSNAGFLASS”, for which the protein production result is listed as “failed”.

As for “MNDRMDPPPPRIEDILPHRGSMLLLAHVDTWDDETLRASAHVDPTAWYADPEGAMPAWFGIELMAQAIAAHVGLLSMREGNPARPGVLLGSRKYEAHAPAFAPAQPLSIAVQEVLRSTEGHGAYACTIAAGGRDLAQAVIKVYQPTDFQAFIEGSFAS”, the protein production result was “failed”.

Regarding “MENFVFHNPTKIVFGRGTIPKIGEEIKNAGIRKVLFLYGGGSIKKNGVYDQVVDSLKKHGIEWVEVSGVKPNPVLSKVHEAVEVAKKEKVEAVLGVGGGSVVDSAKAVAAGALYEGDIWDAFIGKYQIEKALPIFDVLTISATGTEMNGNAVITNEKTKEKYGVSSKALYPKVSIIDPSVQFTLPKEQTVYGAVDAISHILEYYFDGSSPEISNEIAEGTIRTIMKMTERLIEKPDDYEARANLAWSATIALNGTMAVGRRGGEWACHRIEHSLSALYDIAHGAGLAIVFPAWMKYVYRKNPAQFERFAKKIFGFEGEGEELILKGIEAFKNWLKKVGAPVSLKDAGIPEEDIDKIVDNVMLLVEKNLKPKGASLGRIMVLEREDVREILKLAAK”, the protein production result is “not failed”.

For the origin of these results see a protein production outcome set (Wang et al. 2014).
